B1: MTSP-1 Q38H/I41S/D60bT/F60eS/Y60gW/F97G/ins97aV/T98P/F99L/C122S/G151H/Q175L/Q192D (enzyme)
chain: VVGGTDADEGEWPWQVSLHALGHGHSCGASLISPNWLVSAAHCYIDTRGSRWSDPTQWTAFLGLHDQSQRSAPGVQERRLKRIISHPFFNDGVPLDYDIALLELEKPAEYSSMVRPISLPDASHVFPAGKAIWVTGWGHTQYGGTHALILQKGEIRVINQTTCENLLPQLITPRMMCVGFLSGGVDSCDGDSGGPLSSVEADGRIFQAGVVSWGDGCAQRNKPGVYTRLPLFRDWIKENTGV
B2: MTSP-1 protease domain I41G/F97S/F99L/C122S/G151N/Q175I/D217T (enzyme)
chain: VVGGTDADEGEWPWQVSLHALGQGHGCGASLISPNWLVSAAHCYIDDRGFRYSDPTQWTAFLGLHDQSQRSAPGVQERRLKRIISHPFFNDSTLDYDIALLELEKPAEYSSMVRPISLPDASHVFPAGKAIWVTGWGHTQYGGTNALILQKGEIRVINQTTCENLLPQIITPRMMCVGFLSGGVDSCQGDSGGPLSSVEADGRIFQAGVVSWGTGCAQRNKPGVYTRLPLFRDWIKENTGV
B3: MTSP-1 protease domain I41T/F97H/F99L/C122S/G151N/Q175H/Q192V/D217L (enzyme)
chain: VVGGTDADEGEWPWQVSLHALGQGHTCGASLISPNWLVSAAHCYIDDRGFRYSDPTQWTAFLGLHDQSQRSAPGVQERRLKRIISHPFFNDHTLDYDIALLELEKPAEYSSMVRPISLPDASHVFPAGKAIWVTGWGHTQYGGTNALILQKGEIRVINQTTCENLLPQHITPRMMCVGFLSGGVDSCVGDSGGPLSSVEADGRIFQAGVVSWGLGCAQRNKPGVYTRLPLFRDWIKENTGV
B4: MTSP-1 protease domain F97Q/F99L/C122S/Q175N/Q192V/D217G (enzyme)
chain: VVGGTDADEGEWPWQVSLHALGQGHICGASLISPNWLVSAAHCYIDDRGFRYSDPTQWTAFLGLHDQSQRSAPGVQERRLKRIISHPFFNDQTLDYDIALLELEKPAEYSSMVRPISLPDASHVFPAGKAIWVTGWGHTQYGGTGALILQKGEIRVINQTTCENLLPQNITPRMMCVGFLSGGVDSCVGDSGGPLSSVEADGRIFQAGVVSWGGGCAQRNKPGVYTRLPLFRDWIKENTGV
B5: MTSP-1 protease domain I41E/F97R/F99L/C122S/G151Q/Q175G/Q192T/D217V (enzyme)
chain: VVGGTDADEGEWPWQVSLHALGQGHECGASLISPNWLVSAAHCYIDDRGFRYSDPTQWTAFLGLHDQSQRSAPGVQERRLKRIISHPFFNDRTLDYDIALLELEKPAEYSSMVRPISLPDASHVFPAGKAIWVTGWGHTQYGGTQALILQKGEIRVINQTTCENLLPQGITPRMMCVGFLSGGVDSCTGDSGGPLSSVEADGRIFQAGVVSWGVGCAQRNKPGVYTRLPLFRDWIKENTGV
B6: MTSP-1 protease domain I41G/F97S/F99L/C122S/G151N/Q175I/Q192T (enzyme)
chain: VVGGTDADEGEWPWQVSLHALGQGHGCGASLISPNWLVSAAHCYIDDRGFRYSDPTQWTAFLGLHDQSQRSAPGVQERRLKRIISHPFFNDSTLDYDIALLELEKPAEYSSMVRPISLPDASHVFPAGKAIWVTGWGHTQYGGTNALILQKGEIRVINQTTCENLLPQIITPRMMCVGFLSGGVDSCTGDSGGPLSSVEADGRIFQAGVVSWGDGCAQRNKPGVYTRLPLFRDWIKENTGV
B7: MTSP-1 protease domain I41D/F97R/F99L/C122S/G151Q/Q175R/Q192V/D217L (enzyme)
chain: VVGGTDADEGEWPWQVSLHALGQGHDCGASLISPNWLVSAAHCYIDDRGFRYSDPTQWTAFLGLHDQSQRSAPGVQERRLKRIISHPFFNDRTLDYDIALLELEKPAEYSSMVRPISLPDASHVFPAGKAIWVTGWGHTQYGGTQALILQKGEIRVINQTTCENLLPQRITPRMMCVGFLSGGVDSCVGDSGGPLSSVEADGRIFQAGVVSWGLGCAQRNKPGVYTRLPLFRDWIKENTGV
B8: MTSP-1 protease domain I41E/F97V/F99L/C122S/G151N/Q175L/Q192S/D217H (enzyme)
chain: VVGGTDADEGEWPWQVSLHALGQGHECGASLISPNWLVSAAHCYIDDRGFRYSDPTQWTAFLGLHDQSQRSAPGVQERRLKRIISHPFFNDVTLDYDIALLELEKPAEYSSMVRPISLPDASHVFPAGKAIWVTGWGHTQYGGTNALILQKGEIRVINQTTCENLLPQLITPRMMCVGFLSGGVDSCSGDSGGPLSSVEADGRIFQAGVVSWGHGCAQRNKPGVYTRLPLFRDWIKENTGV
B9: MTSP-1 protease domain I41R/F97T/F99L/C122S/G151N/Q175T/Q192T/D217I (enzyme)
chain: VVGGTDADEGEWPWQVSLHALGQGHRCGASLISPNWLVSAAHCYIDDRGFRYSDPTQWTAFLGLHDQSQRSAPGVQERRLKRIISHPFFNDTTLDYDIALLELEKPAEYSSMVRPISLPDASHVFPAGKAIWVTGWGHTQYGGTNALILQKGEIRVINQTTCENLLPQTITPRMMCVGFLSGGVDSCTGDSGGPLSSVEADGRIFQAGVVSWGIGCAQRNKPGVYTRLPLFRDWIKENTGV
B10: MTSP-1 protease domain I41D/F97T/F99L/C122S/G151N/Q175S/Q192T/D217A (enzyme)
chain: VVGGTDADEGEWPWQVSLHALGQGHDCGASLISPNWLVSAAHCYIDDRGFRYSDPTQWTAFLGLHDQSQRSAPGVQERRLKRIISHPFFNDTTLDYDIALLELEKPAEYSSMVRPISLPDASHVFPAGKAIWVTGWGHTQYGGTNALILQKGEIRVINQTTCENLLPQSITPRMMCVGFLSGGVDSCTGDSGGPLSSVEADGRIFQAGVVSWGAGCAQRNKPGVYTRLPLFRDWIKENTGV
B11: MTSP-1 protease domain F97R/ins97aT/T98V/C122S/Q175M/Q192T/D217S (enzyme)
chain: VVGGTDADEGEWPWQVSLHALGQGHICGASLISPNWLVSAAHCYIDDRGFRYSDPTQWTAFLGLHDQSQRSAPGVQERRLKRIISHPFFNDRTVFDYDIALLELEKPAEYSSMVRPISLPDASHVFPAGKAIWVTGWGHTQYGGTGALILQKGEIRVINQTTCENLLPQMITPRMMCVGFLSGGVDSCTGDSGGPLSSVEADGRIFQAGVVSWGSGCAQRNKPGVYTRLPLFRDWIKENTGV
B12: MTSP-1 protease domain F97S/ins97aN/T98G/F99M/C122S/Q175T/Q192T/D217S (enzyme)
chain: VVGGTDADEGEWPWQVSLHALGQGHICGASLISPNWLVSAAHCYIDDRGFRYSDPTQWTAFLGLHDQSQRSAPGVQERRLKRIISHPFFNDSNGMDYDIALLELEKPAEYSSMVRPISLPDASHVFPAGKAIWVTGWGHTQYGGTGALILQKGEIRVINQTTCENLLPQTITPRMMCVGFLSGGVDSCTGDSGGPLSSVEADGRIFQAGVVSWGSGCAQRNKPGVYTRLPLFRDWIKENTGV
B13: MTSP-1 protease domain F97V/ins97aH/T98R/F99L/C122S/Q175R/Q192G/D217S (enzyme)
chain: VVGGTDADEGEWPWQVSLHALGQGHICGASLISPNWLVSAAHCYIDDRGFRYSDPTQWTAFLGLHDQSQRSAPGVQERRLKRIISHPFFNDVHRLDYDIALLELEKPAEYSSMVRPISLPDASHVFPAGKAIWVTGWGHTQYGGTGALILQKGEIRVINQTTCENLLPQRITPRMMCVGFLSGGVDSCGGDSGGPLSSVEADGRIFQAGVVSWGSGCAQRNKPGVYTRLPLFRDWIKENTGV
B14: MTSP-1 protease domain F97L/ins97aM/T98N/F99L/C122S/Q175T/Q192T/D217S (enzyme)
chain: VVGGTDADEGEWPWQVSLHALGQGHICGASLISPNWLVSAAHCYIDDRGFRYSDPTQWTAFLGLHDQSQRSAPGVQERRLKRIISHPFFNDLMNLDYDIALLELEKPAEYSSMVRPISLPDASHVFPAGKAIWVTGWGHTQYGGTGALILQKGEIRVINQTTCENLLPQTITPRMMCVGFLSGGVDSCTGDSGGPLSSVEADGRIFQAGVVSWGSGCAQRNKPGVYTRLPLFRDWIKENTGV

In this test the target is plasma purified human complement protein C3 (human) (UniProt P01024). The experiment in a line: cell-based or functional assay.
Chain of plasma purified human complement protein C3 (human) (P01024 23-667, chain 1 of 2): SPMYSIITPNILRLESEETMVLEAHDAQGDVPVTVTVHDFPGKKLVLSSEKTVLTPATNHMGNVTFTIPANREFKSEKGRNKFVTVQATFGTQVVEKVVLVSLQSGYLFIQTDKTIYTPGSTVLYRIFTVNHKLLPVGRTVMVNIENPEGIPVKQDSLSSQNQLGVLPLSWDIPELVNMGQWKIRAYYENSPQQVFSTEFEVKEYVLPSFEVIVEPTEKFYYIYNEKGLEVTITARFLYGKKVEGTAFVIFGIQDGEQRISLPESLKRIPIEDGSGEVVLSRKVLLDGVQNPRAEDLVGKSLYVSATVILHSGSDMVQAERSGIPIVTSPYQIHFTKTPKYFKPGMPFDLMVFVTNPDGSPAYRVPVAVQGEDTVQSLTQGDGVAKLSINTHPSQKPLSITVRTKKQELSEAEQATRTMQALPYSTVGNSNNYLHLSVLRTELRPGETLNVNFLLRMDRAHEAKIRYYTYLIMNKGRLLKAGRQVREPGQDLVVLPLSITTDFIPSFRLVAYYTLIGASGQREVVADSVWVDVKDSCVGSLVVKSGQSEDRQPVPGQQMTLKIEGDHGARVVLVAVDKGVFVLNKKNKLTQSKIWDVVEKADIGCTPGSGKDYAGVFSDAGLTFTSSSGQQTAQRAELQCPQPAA
Chain of plasma purified human complement protein C3 (human) (P01024 672-1663, chain 2 of 2): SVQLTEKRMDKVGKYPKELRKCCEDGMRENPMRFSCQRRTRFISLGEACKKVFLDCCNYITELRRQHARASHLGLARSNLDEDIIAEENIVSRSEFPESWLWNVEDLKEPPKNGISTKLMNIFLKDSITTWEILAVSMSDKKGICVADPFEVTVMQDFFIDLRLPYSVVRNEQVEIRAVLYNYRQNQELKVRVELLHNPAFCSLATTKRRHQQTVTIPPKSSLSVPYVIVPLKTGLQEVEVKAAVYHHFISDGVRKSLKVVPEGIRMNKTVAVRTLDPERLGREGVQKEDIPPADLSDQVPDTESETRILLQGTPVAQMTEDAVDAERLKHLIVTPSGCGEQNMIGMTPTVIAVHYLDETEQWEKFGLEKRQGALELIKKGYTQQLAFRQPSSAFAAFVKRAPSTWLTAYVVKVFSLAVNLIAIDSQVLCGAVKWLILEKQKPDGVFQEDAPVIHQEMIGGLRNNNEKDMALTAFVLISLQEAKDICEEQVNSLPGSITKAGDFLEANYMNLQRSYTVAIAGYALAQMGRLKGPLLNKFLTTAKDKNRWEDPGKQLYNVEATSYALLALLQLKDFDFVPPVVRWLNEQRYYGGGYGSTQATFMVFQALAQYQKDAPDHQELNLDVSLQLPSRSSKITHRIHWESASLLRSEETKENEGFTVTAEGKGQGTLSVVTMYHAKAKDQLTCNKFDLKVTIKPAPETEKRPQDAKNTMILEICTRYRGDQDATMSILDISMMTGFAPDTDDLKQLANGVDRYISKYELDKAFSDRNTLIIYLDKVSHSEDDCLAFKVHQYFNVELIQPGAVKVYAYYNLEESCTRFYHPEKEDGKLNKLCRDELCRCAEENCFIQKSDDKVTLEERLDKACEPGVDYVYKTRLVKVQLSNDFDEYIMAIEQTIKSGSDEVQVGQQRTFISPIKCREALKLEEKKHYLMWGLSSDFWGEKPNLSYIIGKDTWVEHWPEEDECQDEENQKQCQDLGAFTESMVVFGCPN
Turning to B1, the EC50 of hC3 cleavage stood at 169 nM.

B2 registered an EC50 hC3 cleavage of 107 nM.

As for B3, the EC50 hC3 cleavage was determined as 131 nM.

B4 had an EC50 hC3 cleavage of 3670 nM.

In turn, B5 showed an EC50 hC3 cleavage of 13 nM.

In turn, B6 registered an EC50 hC3 cleavage of 97.7 nM.

In the case of B7, the EC50 hC3 cleavage came to 88 nM.

The molecule B8 showed an EC50 hC3 cleavage of 49.4 nM.

Molecule B9 came in with an EC50 hC3 cleavage of 159 nM.

On to B10, for which the EC50 hC3 cleavage turned out to be 70.9 nM.

The molecule B11 yielded an EC50 hC3 cleavage of 42.2 nM.

Take B12: the EC50 hC3 cleavage came to 2400 nM.

Turning to B13, the EC50 hC3 cleavage was 905 nM.

In the case of B14, the EC50 hC3 cleavage came out at 256 nM.

For the origin of these results see patent US20240018502A1.
